Source: patent publication CN110156894A (JIANGSU NUOMAIBO BIOMEDICAL TECH CO LTD, dated 2019)

T1: 重组TEM8蛋白(义翘神州) (human, UniProt Q9H6X2 33-321, limits assumed)
T1 construct: also called TEM8重组蛋白; recombinant TEM8 protein (Sino Biological)
T1 sequence (looked up): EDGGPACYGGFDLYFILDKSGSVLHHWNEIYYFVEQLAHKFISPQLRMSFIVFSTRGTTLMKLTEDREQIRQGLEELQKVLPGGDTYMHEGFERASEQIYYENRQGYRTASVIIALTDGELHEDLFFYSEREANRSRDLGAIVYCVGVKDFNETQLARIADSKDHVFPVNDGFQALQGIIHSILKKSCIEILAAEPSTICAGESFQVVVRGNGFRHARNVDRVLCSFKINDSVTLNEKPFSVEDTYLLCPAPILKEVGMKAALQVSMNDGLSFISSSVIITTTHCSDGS


What was measured:
TEM8 on TEM8过表达细胞 [1] = biological target: T2, TEM8 on TEM8过表达细胞 (UniProt Q9H6X2 33-564, limits assumed); experiment: cell-based ELISA on HCT116/TEM8 cells
T2 construct: whole, on cells; One molecule is used for cell-surface TEM8 on both cell lines; the cell line is named under assay; also called TEM8稳定过表达细胞株 (CHO-K1); TEM8过表细胞

重组TEM8蛋白(义翘神州) [2] = biological target: T1, 重组TEM8蛋白(义翘神州); experiment: ELISA on plate-bound TEM8 protein, method as in Example 2
重组TEM8蛋白(义翘神州) [3] = biological target: T1, 重组TEM8蛋白(义翘神州); experiment: ELISA, antibody on plate-bound TEM8 protein, anti-human IgG-HRP, OD450
TEM8 on TEM8过表达细胞 [4] = biological target: T2, TEM8 on TEM8过表达细胞; experiment: cell-based assay on TEM8 overexpressing cells, anti-human-IgG-Eu fluorescence

Binder | EC50 (TEM8 on TEM8过表达细胞 [1]) [µg/mL] | EC50 (重组TEM8蛋白(义翘神州) [2]) [µg/mL] | EC50 (重组TEM8蛋白(义翘神州) [3]) [µg/mL] | EC50 (TEM8 on TEM8过表达细胞 [4]) [µg/mL]
HUT104 (antibody, human IgG1, kappa, V domains shown, also called TEM8抗体HUT104; 单克隆抗体HUT104) VH: EVQLQESGPGLVKPSETLSLTCTVTGDSISSDYWNWVRQAPGQRLEWMGYISYSGNTYTNPSLKSRITINRDTSKNQFSLQLNSVTPEDTAVYYCARYKTITSAFDVWGQGTTVTVSS VL: EIVMTQSPATLSVSPGERATLSCRASQNIRDFLHWYQQKPGQAPRLLIYYASQSISGIPARFSGSGSGTDFTLTISSLEPEDFAVYYCQNGHSFPYTFGGGTKVEIKR | 0.128 | 0.00176 | 0.00317 | 0.105
HUT103 (antibody, human IgG1, kappa, V domains shown, also called TEM8抗体; 单克隆抗体HUT103) VH: EVQLQESGPGLVKPSETLSLTCTVTGDSISSDYWNWVRQAPGQRLEWMGYISYSGNTYTNPSLKSRITINRDTSKNQFSLQLNSVTPEDTAVYYCARYKTITSVLDVWGQGTTVTVSS VL: EIVMTQSPATLSVSPGERATLSCRASQNIRDFLHWYQQKPGQAPRLLIYYASQSISGIPARFSGSGSGTDFTLTISSLEPEDFAVYYCQNGHSFPYTFGGGTKVEIKR |  |  | 0.00453 | 0.13
HUT105 (antibody, human IgG1, kappa, V domains shown, also called TEM8抗体; 单克隆抗体HUT105) VH: EVQLQESGPGLVKPSETLSLTCTVTGDSISSDYWNWVRQAPGQRLEWMGYISYSGNTYTNPSLKSRITINRDTSKNQFSLQLNSVTPEDTAVYYCARYKTITSMFDVWGQGTTVTVSS VL: EIVMTQSPATLSVSPGERATLSCRASQNIRDFLHWYQQKPGQAPRLLIYYASQSISGIPARFSGSGSGTDFTLTISSLEPEDFAVYYCQNGHSFPYTFGGGTKVEIKR |  |  | 0.00357 | 0.113
